Article PMC4125116

How the values were obtained:
[1] = target: BldM fused to the T18 or the T25 fragment of adenylate cyclase (BACTH) (Streptomyces venezuelae); assay: two-hybrid; bacterial two-hybrid (BACTH), T18 (pUT18) and T25 (pKT25) fusions in E. coli BTH101; transformants grown at 30°C for two days; β-galactosidase assays of four independent clones
[2] = target: WhiI fused to the T18 or the T25 fragment of adenylate cyclase (BACTH) (Streptomyces venezuelae); assay: as above

Row | Substance | β-galactosidase activity (Miller units) [1] | β-galactosidase activity (Miller units) [2]
1 | WhiI fused to the T18 or the T25 fragment of adenylate cyclase (BACTH) (natural protein) | 3000 Miller units | –
2 | BldM fused to the T18 or the T25 fragment of adenylate cyclase (BACTH) (natural protein) | 750 Miller units | 3000 Miller units
